Assay results: PMC10234438

These substances were tested on IMP3 (GST-/His-tagged) (human) (assay: EMSA). Details: EMSA: 10 mM Tris-HCl pH 7.5, 150 mM NaCl, 0.5 mM EDTA, 0.5 mM DTT, 0.1% NP-40, 5% glycerol, RNaseOUT, 1 ug tRNA, 1 ug BSA; 5 nM RNA; 30 min at 25 C, then 5 min ….

Substance	Kd [nM]
all-UG linear	48.8
ANKRD17 linear	8.7
101-mer linear	9.3

Same assay, conditions: circular (T4 RNA ligase); EMSA: 10 mM Tris-HCl pH 7.5, 150 mM NaCl, 0.5 mM EDTA, 0.5 mM DTT, 0.1% NP-40, 5% glycerol, RNaseOUT, 1 ug tRNA, 1 ug BSA; 5 nM RNA; 30 min at 25 C, then 5 min …

Substance	Kd [nM]
ANKRD17 circRNA	8.5
101-mer circRNA	10.4
all-UG circRNA	60.3
